The values below are quoted from earlier work in PMC2752191.

Some targets named below: Beclin1 peptide (UniProt Q14457); Bak peptide (UniProt Q16611); Bax peptide (UniProt Q07812).

Sequence of vBcl-2 (P89884 whole entry): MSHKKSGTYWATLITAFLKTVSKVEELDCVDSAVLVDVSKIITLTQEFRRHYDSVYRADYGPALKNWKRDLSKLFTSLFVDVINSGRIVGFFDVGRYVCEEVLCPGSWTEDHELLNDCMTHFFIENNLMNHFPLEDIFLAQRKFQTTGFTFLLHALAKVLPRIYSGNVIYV
Sequence of Beclin1 peptide (Q14457 107-130): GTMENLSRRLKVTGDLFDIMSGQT
Sequence of Bax peptide (Q07812 55-74): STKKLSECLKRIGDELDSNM

For vBcl-2 (from UniProt P89884), the Kd (usually the constant that tells how readily two partners part at equilibrium) was 40 nM in the data set with Beclin1 peptide, 76 nM with Bak peptide and 690 nM in the data set with Bax peptide.
